Source: the DeepSol protein solubility set

Experiment: soluble on expression in E. coli; label from the status in PepcDB or PDB records

| Sequence | soluble on expression in E. coli |
| --- | --- |
| MEYDAFITNQLRGAQNQSSGLTTRYEQMSKIDNLLADKSSSLSGSLQSFFTSLQTLVSNAEDPAARQALIGKAEGLVNQFKTTDQYLRDQDKQVNIAIGSSVAQINNYAKQIANLNDQISRMTGVGAGASPNDLLDQRDQLVSELNKIVGVEVSVQDGGTYNLTMANGYTLVQGSTARQLAAVPSSADPTRTTVAYVDEAAGNIEIPEKLLNTGSLGGLLTFRSQDLDQTRNTLGQLALAFADAFNAQHTKGYDADGNKGKDFFSIGSPVVYSNSNNADKTVSLTAKVVDSTKVQATDYKIVFDGTDWQVTRTADNTTFTATKDADGKLEIDGLKVTVGTGAQKNDSFLLKPVSNAIVDMNVKVTNEAEIAMASESKLDPDVDTGDSDNRNGQALLDLQNSNVVGGNKTFNDAYATLVSDVGNKTSTLKTSSTTQANVVKQLYKQQQSVSGVNLDEEYGNLQR | soluble |
| MGDHYGFSLTTFSPSGKLMQIEYALNAVKNGQPSVGLRAKDGVVLATENVGSVLTDDQPKVEQISKHIGCVYSGMGPDFRILVKKARKIAMEYEMMYGEEMPTIQLVTDIAAVMQEYTQSGGVRPFGASLLIAGWDKNPGRPLLFQCDPSGAYFAWKATALGKNDVNAKTFLEKRFSEALELDDGIHTALLTLRESFDVGMNENNVEVAVCNSTGFHRLTKQQVHDHLGTL | not soluble |
| MKFAIFVNTTREKALELARELTAWLDARSIDYVFDPQSAKALGCGKWEEKADLSQHCDAFVALGGDGTLLLASHYSRSKPVVGINVGDLGFLTEFSPDEMWVAMDHLVSGNYSIHTRSQLEATLESGESLTSLNDVIFEKGSAARRLPAFTILLDDEMLGSYRADGIIIATSTGSTAYSMSAGGPIIAPKSNVFVITPICPHMLTVRPIVISDDKTIKISVDSQSGEFPLKMDGIQKKLLAPGEVVTVKKSPHHINLVANEKRNYCEILRKKLLWSHEHPTGELEHHHHHH | not soluble |
| MSLNTENIRIIALGGVGEIGKNLYVIEIDSDIFVVDAGLMHPENEMLGIDVVIPDISYLIERSDRVKAIFLTHGHEENIGGVFYCLNKLSVPVYGTKLTLALLKETLKQYGVNKKPDLREIHSKSVITFESTKVSFFKTNHSIPDSVGVSFKTSLGSIVCTGDFKFDQTPVLNQTSDIGEIAKIGNSGVLCLLSDSANAEKPGYTPSEALVGGEISDVMYNAENRVIIAVFASNFNRIQQVIDAALQNGRKLAVSGKNISAILQLAMKLGYVTADEDMFIPVQEVKKYPKREVAILTGDNHGEPLAALTRIAKQGHKQLDIEEGDTVLIASSPIPGQELVYSKAVDLLTRAGAQVVFAQKRVHVSGHGCQEELKLMLNLLKPKYLIPVNGEYRMQKAHSKLAEEIGMKRSDIFLIEKGDVVEFRGQNVKIGDKVHSGNILIDGLGVGDIGNIVLRDRRLLSQDGILIVVITLDKKKKHLVSGPEIITRGFVYVRESEQLIVEATELVRELVNESTENAVVEWSALKQTMREALNQFLYEKTKRKPMIIPIIMEEGHHHHHH | soluble |
| MSETQNSTSQKAMDEDNKAASQTMPNTQDKNYEDELTQVALALVEDVINYAVKIVEEERNPLKNIKWMTHGEFTVEKGLKQIDEYFSKCVSKKCWAHGVEFVERKDLIHSFLYIYYVHWSISTADLPVARISAGTYFTMKVSKTKPPDAPIVVSYVGDHQALVHRPGMVRFRENWQKNLTDAKYSFMESFPFLFNRVLEHHHHHH | soluble |
| MGVLLREALRSMCVNNQWSYAVFWKIGCQNSSLLIWEECYNETESSSNPRRLCGLGVDTQGNEKVQLLTNRMMLNNRIILVGEGLVGRAAFTGHHQWILANSFNRDVHPPEVINEMLLQFSAGIQTVAVFPVVPHGVVQLGSSLPIMENLGFVNDVKGLILQLGCVPGALLSENYRTYEPAADFIGVPVSRIIPSQGHKILQSSAFVAETSKQHFNSTGSSDHQMVEESPCNLVDEHEGGWQSTTGFLTAGEVAVPSNPDAWLNQNFSCMSNVDAAEQQQIPCEDISSKRSLGSDDLFDMLGLDDKNKGCDNSWGVSQMRTEVLTRELSDFRIIQEMDPEFGSSGYELSGTDHLLDAVVSGACSSTKQISDETSESCKTTLTKVSNSSVTTPSHSSPQGSQLFEKKHGQPLGPSSVYGSQISSWVEQAHSLKREGSPRMVNKNETAKPANNRKRLKPGENPRPRPKDRQMIQDRVKELREIIPNGAKCSIDALLERTIKHMLFLQNVSKHSDKLKQTGESKIMKEDGGGATWAFEVGSKSMVCPIVVEDINPPRIFQVEMLCEQRGFFLEIADWIRSLGLTILKGVIETRVDKIWARFTVEASRDVTRMEIFMQLVNILEQTMKCGGNSKTILDGIKATMPLPVTGGCSM | not soluble |
| MGSDKIHHHHHHMSRGIYIVANDRVIDNAIALLNSIRYYDPEVTIYLIPFNENYHKVAEQLSTLHKVQIFPDLELIDKFTKRIGEIFDRDFLALPNKMRKLVAWFGPLDEFIYIDTDIVVFEKIADNLDKLSEVDFFCCDYHYANDKLRNIFSPFVKEQQLFSDAQLQDVFNSGFWASRKGVITEEQMDEALRECAAHREYFDFSEGVTDQPILNYLVLKLIDKRGNLVKIPGGGPGSWAGSQSFQQQDYALYDRGQRLKYLHWAGTRMKTGSPYWQLWEHYRYLHEGKFAFISKLTRRLFPFVAART | not soluble |
| SLRVYIYEYAVATGDEEFLAEGRAMLESLLRAFAKSGYETLTVAHPSVGVRWADEVLRDETQALECADLTLVIAPESDGLLESKVREYSRETEVIGPTPRAIRVAADKRKTEDALRDARSFQLPTREADVMVSKPADGAGSEGVRIGRGELSRELIPGSHHSLLCVSDGETVDVLGINDQFVAFAGRELVYLGGRTPSDHRELTRIARDIAEEVVERIPGLVGLFGVDLVMKGGEPYLIEVNPRPTTPTVAAALEHPEAVVRSLLEGPTGKVLRYRREYVYVKRGAEALVPEKFEVVEDFHGLRVYRG | soluble |
| MIKEKYTFDDLVEIMKILRSENGCPWDRVQNHESLKKYLIEETYEVLEVIDLNDKKRLCEELGDLLLQIVFHAQIASEDNEFDINDVITGICRKMVQRHTHVFGTDKADTAEEVLANWEEIKKKEKGMESQTEVLKSVPSNLPALMRSYKVQQKASQVGFDWKDIDSVFEKVYEEINELRDVYKSKDVERINDELGDVLFSIVNLSRFLKVQPELALMGSVNKFIERFEFIEKEAAKSGRTLSEMSLDEMDELWNKAKTKI | soluble |
| MGSDKIHHHHHHMRSAAVDYAPSQAERRNFQRVRVKIYGRFMLEDRTEHPCQVVDMSPGNVAFRTDRIGMPGEKVIAYIDHIGRIEGVVTRTLQDGFAMTVIASDRKKDKLAAQLTWLANKHELDLPEDRRHERVAPRNPTSVLQLTDGRQYQCRIIDLSLSGAAIEIDVKPAIGVQVMLGTMRGQIVRHFEDGVAIEFAVIQRPETLDSEFNTPRA | not soluble |
| MSMDISDFYQTFFDEADELLADMEQHLLDLVPESPDAEQLNAIFRAAHSIKGGAGTFGFTILQETTHLMENLLDEARRGEMQLNTDIINLFLETKDIMQEQLDAYKNSEEPDAASFEYICNALRQLALEAKGETTPAVRSHHHHHH | soluble |
| MGSDKIHHHHHHMKITLNSVSFRYNGDYVLKDVNAEFETGKIYVVVGKNGSGKTTLLKILAGLLEAEGEIFLDGSPADPFLLRKNVGYVFQNPSSQIIGATVEEDVAFSLEIMGLDESEMRKRIKKVLELVGLSGLEKEDPLNLSGGQKQRLAIASMLARDTRFLALDEPVSMLDPPSQREIFQVLESLKNEGKGIILVTHELEYLDDMDFILHISNGTIDFCGSWEEFVEREFDDVEIPFKWKLWKKCGKINLWEDRYENSGNQRRRDTV | not soluble |
| MGSDKIHHHHHHMNKQTEHDTREHLLATGEQLCMQRGFTGMGLSELLKTAQVPKGSFYHYFRSKEAFGVAMLERHYACYHQRLTAHFTSGPGNHRDRLLAWYQETLKQFCQQGAISGCLTVKLSAEVCDLSEDMRSTMDKGAQEIMALLARALEDGRNSHCLHFTGQPLPQAQVLYALWLGANLQAKISRSAAPLENALAHVKTIIATPEQ | not soluble |
| MSLAEFSADLCLFDLDGTIVSTTVAAEKAWTKLCYEYGVDPSELFKHSHGARTQEVLRRFFPKLDDTDNKGVLALEKDIAHSYLDTVSLIPGAENLLLSLDVDTETQKKLPERKWAIVTSGSPYLAFSWFETILKNVGKPKVFITGFDVKNGKPDPEGYSRARDLLRQDLQLTGKQDLKYVVFEDAPVGIKAGKAMGAITVGITSSYDKSVLFDAGADYVVCDLTQVSVVKNNENGIVIQVNNPLTRAEGHHHHHH | not soluble |
| SSDLEDDETPQLSAHALAALQEFYAEQKQQIEPGEDDKYNIGIIEENWQLSQFWYSQETALQLAQEAIAAVGEGGRIACVSAPSVYQKLRELCRENFSIYIFEYDKRFAMYGEEFIFYDYNNPLDLPERIAAHSFDIVIADPPYLSEECLRKTSETVKYLTRGKILLCTGAIMEEQAAELLGVKMCTFVPRHTRNLANEFRCYVNYDSGLDCGI | soluble |
| MGKKRKITDEKDAQHVPAEKREKVENWLKKSTEKPTSSQSDAEKKKKRPWRNKVRKLAAKKAAADKKSENPEEPPLILEPKSSSDENTKKKRKRGPKKKKFKPEVAGKAAETENDDVAAAPEEADPIAEAKKRLDAGRFRFLNEKLYTCTGSEAFDFFKEDPTAFDLYHKGFADQVKKWPNHPLREIIRWLQSKPDQQSVFDLGCGEAKIAEAVGEKHKIRSFDLVAVNDRVESCDMSKLPAEDSSADIVIYCLSLMGTNLYDFIREARRVLKIGGILKIAEVTSRFVSIKQFCEAITKMGFEQSHRRELTDYFMMMEFKKVEKVEQKRPYGLKLKPCLYKKR | soluble |
| MAGDPMNVNVEDNAKVTLTSQGATKIYKTPSNHVEQYQTFNLKDNAYLEYVADPIIAYENAKFYQHNTFNLNNSSSLFYTDILTPGYSKTGEAFKYQYMHLINEIYIEDELVTYDNLLLNPNKQSINEIGYMEHYSHYGSAYFIHEDVNQKLIDSVYETISSYSNTFDCRVAISQLPTHGFAVRIFAYRTQIIEKILGIIQSYIAENIYDRKLDFLRKYLEHHHHHH | not soluble |
| MLDMELESFLSMEKQGDISDAFLSAVKAEMQQMVLYAAGLAVRNIEETNRLRQKAKELYFYYLERYSPLAEMYKGSEMSLHNAGTATLRGHKNLAGGKRIDIGLWDGSKEFFHEYCYLPDDVQIRLFISKIQLLHFVVGAITTPQYVEKVALLGKVVGSSRYLELLRSFIDLNDPSGKNYSRGLFFYDHKFDKLEEVGKEVGENLPEVIKRFFPDKWVLVDVWATWCSPCKKEFGYNKQLHAFLEEKGIAMLYCSVDEPENSDNWRNNLSAFGLTGYHYYITSKAEKELLKIPDFRMLIPRYLLFDNKGKLVHANLPRPSSEKALYEEIEKLMQGN | not soluble |
| QDGGYSAREFMIFSSQPAEIADKIMKDLERGSTYINIEGAYKRTPGKAVYVVVDPSEVRQVREIIEEIDPKAFVSIRIVSEQLGEGFTYLRKKRSIFGR | not soluble |
| MSLMLYFITFREARVLLKSRDLALINVDLMKTGKKIRVRVSKDYVEFPDGSRVKKEIIKRIAEDEGNVYFVRDGEVFKAAIAGEHFYKLVPTIPPTIEINGIRMHRTKGTDPLKDTIAKVNTVKPREGEVVLDTCMGLGYTAIESAKRGARVITIEKDPNVIELAKINPWSRELFESPKIKILQGDSFDLIKKFEDESFDVIIHDPPRFSLAGELYSEEFYMEMFRVLKPGGRLFHYVGNPGKRYRGLDLQKGVMERLRRVGFMKVRRVQEALGVFALKPSLEEGHHHHHH | not soluble |
| MGSDKIHHHHHHMQNATLPLPLQSPLLAASGENRVRHGFFTRQGGVSEGLYQGLNVGLGSHDEPEKVQENRRRVTQWFGLSADRLATVHQVHSPDVVVVDDNYDGNRPQADAMVTATPGFVLGVLSADCGPILFADAQAGVVGAAHAGWKGALFGVLENTIEAMVKLGASRERIAASLGPSISQDNYEVGPEYVARFTDIDPAYADYFAATERQGHALFDLKQFTIDRLTKAGVKAENLGLCTYPDEHRFYSYRRTTHRAEPDYGRQISAIAILED | not soluble |
